# The nanobody polyreactivity screen of Harvey et al. (2022)
# Test: yeast display, Sf9 membrane polyspecificity reagent, FACS + sequencing; frameworks hold sequencing errors
# Procedure, shortened: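 Galactose-induced (36–48 hours) yeast carrying a synthetic nanobody display library were exposed to 10% biotinylated, detergent-solubilized Sf9 membrane reagent at 4 °C for 1 hour. FACS followed streptavidin microbead enrichment, using low and high (top ~1%) gates for expression (anti-HA) and reagent binding (streptavidin). Colony PCR, MiSeq 2 × 250 sequencing and CDR-length filtering followed. Labels for polyreactivity reflect the gate of origin.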
row,Sequence,polyreactivity (PSR sort gate)
1,QVQLVESGGGLVQAGGSLRLICAASGRTFYIYTMGWYREAPGKERELVAAISSSGDSTYYADSLKGRFTISRDNAKNTVYLQMNSLKPEDTAVYYCAAYPTYPDEYWGEGTQVTVSS,low polyreactivity
2,QVQLVESGGGLVQAGGSLRLICAASGRTFYKYAMGWYRQAPGKEREFVADISSRGGSTYYADSVKGRFTISRDNAKNTVYLQMNSLKPEDTSVYYCAAFSDLTFWHHFSELYYWGQGTQVTVSS,high polyreactivity
3,QVQLVESGGGLVQAGGSLRLICAASGRTSGGNGMGWYRQAPGKERELVAAITWDGDSTYADSVKGRFTISRDNAKNTDYFQMNSLKPEDTAVYYCAAGVYQSDYYYWGQGTQVTVSS,low polyreactivity
4,QVQLVESGGGLVQAGGSLRLICAASGRTYHGYAMGWYRQAPGKERELVAAITSSGARTYYADSVKGRFTLSRDNAKKTVYLQMNSLKPEDTAVYYCAVNWLRGMDWGQGTQVTVSS,high polyreactivity
5,QVQLVESGGGLVQAGGSLRLICAASGSIFASYVMGWYRQAPGKERDLVAAITSRGTSTYYADSVKGRFTISRDNAKNTVYFQINSLKTEDTAVYYCAARLYGSAPQHEYWGKGTQVTVSS,low polyreactivity
6,QVQLVESGGGLVQAGGSLRLICAASGSIFDRYAMGWYRPAPGKDRELVAAITGSGGSTYYADSVKGRFRISRDNAKNTVYLQMNSLKPEDTAVYYGNARARGAYVRYGYWGQGTQVTVSS,high polyreactivity
7,QVQLVESGGGLVQAGGSLRLICAASGSIFDRYVMGWYRQAPGKERELVAAITTSGDGTYYADSVKGRFTISRDNAKNTVYLQMNSLKPEDTAVYYCAAVRRSWKYSTSDYWGQGTQVTVSS,low polyreactivity
8,QVQLVESGGGLVQAGGSLRLICAASGSIFDTYAMGWYRQAPGKERELLATISWSGDSTYYADSVKGRFTISRDNAKNTVYLQMNCLKPEDTAVYYCAADVGQVSDHEDYDYWGQGTQVTVSS,low polyreactivity
9,QVQLVESGGGLVQAGGSLRLICAASGSIFFYYAMGWYRQAPGKERELVAAITKIGVGTFYADSVKGRFTISRDNAKNTVYLQMNSLKPEDTAVYYCNARTAWEGYDYWGQGTQVTVSS,low polyreactivity
10,QVQLVESGGGLVQAGGSLRLICAASGSIFPRYVMGWSRQAPGKERELVAAITRRGGSTYYADSVKGRFTISRDNAKHTVYLQMNSLKPADTAVYYCNAKYRLEMDWGQGTQVTVSS,high polyreactivity
11,QVQLVESGGGLVQAGGSLRLICAASGSIFRLNTMGWYRQAPGKERELVAAIFTSGGSTYADSVKGRFTISRDNAKNTVYLQMNSLKPEDTAVYYCAGMDYWGQGTQVTVSS,low polyreactivity
12,QVQLVESGGGLVQAGGSLRLICAASGSIFRNNARGWYRQAAGKERELVAVISRRSGNTYYADSVKGRFTISRDNAKNTVYLQMNSLKPEDTAVYYCAADYSKSSIRGDYWGQGTQVTVSS,low polyreactivity
13,QVQLVESGGGLVQAGGSLRLICAASGSIFRPNAMGWYRQAPGKEREFVASISGRVGSTYYADSVKGRFTISRDNAKNTVYLQMNSLKPEDTAVYYCAADFPTDKLSNFPITEYGYWGQGTQVTVSS,high polyreactivity
14,QVQLVESGGGLVQAGGSLRLICAASGSIFSENTMGWYRQAPGKERELVAAISWSGGSTKYADSVKGRFTISRDNAQITVYLQMNCLKPEDTSVYNCGTDIHDDTGAYDYWGQCTQVTVSS,low polyreactivity
15,QVQLVESGGGLVQAGGSLRLICAASGSIFSTYTMGWYRQAPGKERELVAAITRSGGSTYYADSVKGRFTISRDNAKNTVYLQMNSLKPEDTAVYYCAAKGKRLRSYYQRYYYWGQGTQVTVSS,high polyreactivity
16,QVQLVESGGGLVQAGGSLRLICAASGSIFTPYVMGWYRQAPGKEREFVAAITQRGGRTYYADSVKGRFTISRDNAKNTVYLQMNSLKPEDTAVYYCAKTSVSRTYHRSAYDYWGQGTQVTVSS,high polyreactivity
17,QVQLVESGGGLVQAGGSLRLICAASGSIFTYYTMGWYRQAPGKERELVAAIRWSAGRTYYADSVKGRFTISRDNAKNSVYLQMNSLKPEDTSVYYCAAAERLRHGLKFDYWGQGTQVTVSS,high polyreactivity
18,QVQLVESGGGLVQAGGSLRLICAASGSIFVGYAMGWCRQAPGKERELVAAIRSGGSTKYADSVKGRFTISRDNAKNTVYLQMNSLKPEDTAVYYCNVEVHPYYWVDNFHRFPVLHNYWGQGTQVTVSS,low polyreactivity
19,QVQLVESGGGLVQAGGSLRLICAASGSIRYYAMGWYTQAPGKEREFVAAISRRGSSTNYADSVKGRFTISRDNAKNTVYLQMNSLNPEDTAVYNCAAAARAGLKRYYYWGQGTQVTVSS,high polyreactivity
20,QVQLVESGGGLVQAGGSLRLICAASGSISYINAMGWYRQATGKERELDARIRSGDPTNYADSVKGRFTISRDNAKNTVYLQMNSLKPEDTAVYYCARRVTGTLYYTGYDYWGQGTQVTVSS,high polyreactivity
21,QVQLVESGGGLVQAGGSLRLICAASGSTFAYNYMGWYRQAPGKERELVPDIRSGGNTNYADSVKGRFTISRDNAKNTVYLQMNSLKPEDTAVYYCATDGYRIDVYHPDYRYDYWGQGTQVTVSS,low polyreactivity
